Assay results from paper PMC10869706, “Chp1 is a dedicated chaperone at the ribosome that safeguards eEF1A biogenesis” (Nature Communications, 2024).
Substitutions are numbered along the chain they refer to.

Tests used:
V5-eEF1A F98C = target: T1, V5-eEF1A F98C (yeast (S. cerevisiae), UniProt P02994 1-458, F98C); experiment: co-IP; co-IP of V5-eEF1A variants with Chp1 from yeast lysate (GFP-Trap/V5-Trap; 20 mM Tris pH 7.4, 150 mM NaCl, 2 mM MgCl2, 2 mM EDTA, 5% glycerol, 0.25% NP-40), 2 h at 4 °C, immunoblot, quantified; details: partners not purified
T1 construct: eEF1A (Tef2), yeast, with a change that represents a human EEF1A2 polymorphism; source: expressed in yeast cells, in lysate; not shown: V5, N-terminal, kept
T1 sequence (looked up): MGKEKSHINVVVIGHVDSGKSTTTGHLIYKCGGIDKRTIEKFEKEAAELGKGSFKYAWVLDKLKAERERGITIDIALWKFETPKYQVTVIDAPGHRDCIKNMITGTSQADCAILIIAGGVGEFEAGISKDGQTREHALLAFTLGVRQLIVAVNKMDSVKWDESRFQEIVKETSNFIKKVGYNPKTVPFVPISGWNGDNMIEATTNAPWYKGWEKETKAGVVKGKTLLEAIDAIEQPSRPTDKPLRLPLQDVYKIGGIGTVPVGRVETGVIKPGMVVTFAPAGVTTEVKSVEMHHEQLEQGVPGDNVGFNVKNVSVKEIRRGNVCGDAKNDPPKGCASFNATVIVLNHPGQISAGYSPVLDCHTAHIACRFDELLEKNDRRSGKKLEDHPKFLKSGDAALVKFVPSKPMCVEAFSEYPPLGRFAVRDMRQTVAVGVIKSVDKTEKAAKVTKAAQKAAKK

V5-eEF1A M102V = target: T2, V5-eEF1A M102V (yeast (S. cerevisiae), UniProt P02994 1-458, M102V); experiment: as above; details: partners not purified
T2 construct: eEF1A (Tef2), yeast, with a change that represents a human EEF1A2 polymorphism; source: expressed in yeast cells, in lysate; not shown: V5, N-terminal, kept
T2 sequence (looked up): T1 sequence (looked up) with C98F, M102V

B1: Chp1 (in yeast cells expressing V5-eEF1A) (natural protein, yeast (S. cerevisiae), UniProt Q08971 1-146, looked up)
chain: MSTFNAETADNLEDIEKQFAVVAVEQAETYWKLLTSVPGSKLRLTKFDDEIYENFMERFPEYKDVERVKKFTEEELKTKEAKERWRKFFTIFEKKIEDYNFGTLLRTDASAEYGQFTTCFVVRLQFYAFEIARNKHGLNDWIVGQK
notes: Chp1 (ORF YPL225w), yeast; source: yeast cells, in lysate
fold increase in Chp1 binding (against WT eEF1A) (V5-eEF1A F98C): 3 fold | fold increase in Chp1 binding (against WT eEF1A) (V5-eEF1A M102V): 3 fold
